Test [1] addresses T1, human melanocortin 4 receptor (human, UniProt P32245 1-332).
T1 construct: whole, on cells; cAMP assay on whole BHK cells; also called MC4R; human MC4 receptor
Description: competition with 125-NDP-α-MSH, BHK human MC4R membranes. On the procedure: In order to assess the binding affinity of the selected compounds for the human MC4R competitive binding assays was performed with radiolabeled NDP-alpha MSH (¹²⁵NDP-α-MSH).
The assay was performed in 96-well filterplates (Unifilter) using BHK cells stably expressing the human MC4 receptor.
The BHK cell membranes were prepared from frozen or fresh cells that were homogenized in 20 mM HEPES pH 7.1, 5 mM MgCl₂, 1 mg/ml bacitracin (buffer 1) and centrifuged at 15000 rpm at 4° C., 10 min in a Sorvall RC 5B plus, SS-34 rotor. The supernatant was discarded, and the pellets were re-suspended in buffer 1, homogenized and centrifuged two more times. The final pellets were re-suspended in buffer 1 and the protein concentration was measured and adjusted with buffer 1 to 5 mg/ml and the membrane preparation was kept at −80° C. until assay. The assay was run on a dilution of this cell membrane suspension without any further preparation. The suspension was diluted to give maximally 10% specific binding, i.e. to approx. 50-100 fold dilution, optimized after each membrane preparation. The assay was performed in a total volume of 200 μl: 50 μl of cell suspension, 50 μl of ¹²⁵NDP-α-MSH (apx. […] in final concentration), 50 μl of test compound and 50 μl binding buffer were mixed and incubated for 2 h at 25° C. (binding buffer: 25 mM HEPES, pH 7.0, 1 mM CaCl₂), 1 mM MgSO₄, 1 mM EGTA, 0.005% Tween™ 20 and 0.1% HSA or, alternatively, 0.1% ovalbumin (Sigma; catalogue No. A-5503)). Test compounds were dissolved in 100% DMSO and diluted in binding buffer in a dose range from 1 μM to 0.001 nM. Radiolabelled ligand and membranes were diluted in binding buffer. The incubation was stopped by dilution with 8×100 μl ice-cold 0.9% NaCl. The radioactivity retained on the filters was counted using a Packard Topcounter. The data were analysed by non-linear regression analysis of binding curves, using the Windows™ program GraphPad™ Prism (GraphPad Software, USA).

Test [2] addresses T1, human melanocortin 4 receptor. Description: cell-based or functional assay.
For test [3], the target named is human melanocortin 1 receptor (human, UniProt Q01726 1-317). Nature of the test: cell-based or functional assay.
Sequence of human melanocortin 1 receptor (Q01726 whole entry): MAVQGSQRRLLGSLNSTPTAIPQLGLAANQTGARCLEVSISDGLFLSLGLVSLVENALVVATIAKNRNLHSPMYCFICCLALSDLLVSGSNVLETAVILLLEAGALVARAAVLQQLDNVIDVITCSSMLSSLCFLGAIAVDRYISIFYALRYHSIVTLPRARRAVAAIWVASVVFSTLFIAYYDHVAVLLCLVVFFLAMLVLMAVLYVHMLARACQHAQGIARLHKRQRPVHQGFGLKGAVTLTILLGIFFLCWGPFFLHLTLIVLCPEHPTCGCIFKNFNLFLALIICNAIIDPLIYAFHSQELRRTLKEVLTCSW

Positions of bridges follow the written chain, without caps; N, C: chain ends. Non-standard residues stand in square brackets, D forms with d. Cit = NC(=O)NCCC[C@H](N)C(=O)O; Api = NC1(C(=O)O)CCNCC1

T1 sequence (P32245 whole entry): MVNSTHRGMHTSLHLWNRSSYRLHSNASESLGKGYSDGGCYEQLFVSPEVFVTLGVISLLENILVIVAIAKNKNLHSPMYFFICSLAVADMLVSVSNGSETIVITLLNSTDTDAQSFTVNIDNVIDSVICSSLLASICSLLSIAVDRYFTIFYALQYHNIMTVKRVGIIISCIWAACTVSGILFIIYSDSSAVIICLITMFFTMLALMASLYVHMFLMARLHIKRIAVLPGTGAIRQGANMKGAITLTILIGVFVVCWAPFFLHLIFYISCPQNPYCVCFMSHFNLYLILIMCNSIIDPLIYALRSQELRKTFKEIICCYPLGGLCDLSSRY

B1: Chem. 53 (peptide)
peptide: cyclo(CEH[dF]HWCEH[dF]HW)
modifications: disulfide 1-7
SMILES: O=C(O)CC[C@@H]1NC(=O)[C@@H]2CSSC[C@H](NC(=O)[C@H](Cc3c[nH]c4ccccc34)NC(=O)[C@H](Cc3c[nH]cn3)NC(=O)[C@@H](Cc3ccccc3)NC(=O)[C@H](Cc3c[nH]cn3)NC1=O)C(=O)N[C@@H](CCC(=O)O)C(=O)N[C@@H](Cc1c[nH]cn1)C(=O)N[C@H](Cc1ccccc1)C(=O)N[C@@H](Cc1c[nH]cn1)C(=O)N[C@@H](Cc1c[nH]c3ccccc13)C(=O)N2
notes: also called c[c[Cys-Glu-His-D-Phe-His-Trp-Cys]-Glu-His-D-Phe-His-Trp]
Regarding B1, the affinity in test [1] corresponds to a Ki of 9.47 nM. In addition, the “MC4R cAMP EC50” value in test [2] was found to be 11 nM. Moreover, the “MC1R cAMP EC50” value in test [3] was greater than 10 nM.

B2: Chem. 50 (peptide)
peptide: cyclo(C[Api]H[dF]HWC[Api]H[dF]HW)
modifications: disulfide 1-7
SMILES: O=C1N[C@H]2CSSC[C@H](NC(=O)[C@H](Cc3c[nH]c4ccccc34)NC(=O)[C@H](Cc3c[nH]cn3)NC(=O)[C@@H](Cc3ccccc3)NC(=O)[C@H](Cc3c[nH]cn3)NC(=O)C3(CCNCC3)NC2=O)C(=O)NC2(CCNCC2)C(=O)N[C@@H](Cc2c[nH]cn2)C(=O)N[C@H](Cc2ccccc2)C(=O)N[C@@H](Cc2c[nH]cn2)C(=O)N[C@H]1Cc1c[nH]c2ccccc12
notes: also called c[c[Cys-ACP-His-D-Phe-His-Trp-Cys]-ACP-His-D-Phe-His-Trp]
B2 showed an inhibition constant Ki in test [1] of 19.9 nM. In test [2], the “MC4R cAMP EC50” value came out at 1.17 nM. Further, in test [3], the “MC1R cAMP EC50” value amounted to 66.2 nM.

B3: Chem. 55 (peptide)
peptide: cyclo(CKH[dF][Cit]WCKH[dF][Cit]W)
modifications: disulfide 1-7
SMILES: NCCCC[C@@H]1NC(=O)[C@@H]2CSSC[C@H](NC(=O)[C@H](Cc3c[nH]c4ccccc34)NC(=O)[C@H](CCCNC(N)=O)NC(=O)[C@@H](Cc3ccccc3)NC(=O)[C@H](Cc3c[nH]cn3)NC1=O)C(=O)N[C@@H](CCCCN)C(=O)N[C@@H](Cc1c[nH]cn1)C(=O)N[C@H](Cc1ccccc1)C(=O)N[C@@H](CCCNC(N)=O)C(=O)N[C@@H](Cc1c[nH]c3ccccc13)C(=O)N2
notes: also called c[c[Cys-Lys-His-D-Phe-Cit-Trp-Cys]-Lys-His-D-Phe-Cit-Trp]
As for B3, affinity in test [1] was put at a Ki of 0.33 nM. Also, the “MC4R cAMP EC50” value in test [2] is 0.1 nM. Besides, in test [3], the “MC1R cAMP EC50” value came to 4.14 nM.

B4: Chem. 1 (peptide)
peptide: cyclo(CH[dF]RWECH[dF]RWE)
modifications: disulfide 1-7
SMILES: N=C(N)NCCC[C@@H]1NC(=O)[C@@H](Cc2ccccc2)NC(=O)[C@H](Cc2c[nH]cn2)NC(=O)[C@@H]2CSSC[C@H](NC(=O)[C@H](CCC(=O)O)NC(=O)[C@H](Cc3c[nH]c4ccccc34)NC1=O)C(=O)N[C@@H](Cc1c[nH]cn1)C(=O)N[C@H](Cc1ccccc1)C(=O)N[C@@H](CCCNC(=N)N)C(=O)N[C@@H](Cc1c[nH]c3ccccc13)C(=O)N[C@@H](CCC(=O)O)C(=O)N2
notes: also called c[c[Cys-His-D-Phe-Arg-Trp-Glu-Cys]-His-D-Phe-Arg-Trp-Glu]
B4 returned a Ki in test [1] of 47.9 nM. Also, the “MC4R cAMP EC50” value in test [2] was 14.9 nM. Further, the “MC1R cAMP EC50” value in test [3] was determined as 198 nM.

B5: Chem. 54 (peptide)
peptide: cyclo(CRH[dF][Cit]WCRH[dF][Cit]W)
modifications: disulfide 1-7
SMILES: N=C(N)NCCC[C@@H]1NC(=O)[C@@H]2CSSC[C@H](NC(=O)[C@H](Cc3c[nH]c4ccccc34)NC(=O)[C@H](CCCNC(N)=O)NC(=O)[C@@H](Cc3ccccc3)NC(=O)[C@H](Cc3c[nH]cn3)NC1=O)C(=O)N[C@@H](CCCNC(=N)N)C(=O)N[C@@H](Cc1c[nH]cn1)C(=O)N[C@H](Cc1ccccc1)C(=O)N[C@@H](CCCNC(N)=O)C(=O)N[C@@H](Cc1c[nH]c3ccccc13)C(=O)N2
notes: also called c[c[Cys-Arg-His-D-Phe-Cit-Trp-Cys]-Arg-His-D-Phe-Cit-Trp]
In test [1], B5 displayed an inhibitory constant (Ki) of 0.21 nM. In addition, the “MC4R cAMP EC50” value in test [2] amounted to 0.04 nM. Further, the “MC1R cAMP EC50” value in test [3] amounted to 0.29 nM.

B6: Chem. 51 (peptide)
peptide: cyclo(CEH[dF]RWCEH[dF]RW)
modifications: disulfide 1-7
SMILES: N=C(N)NCCC[C@@H]1NC(=O)[C@@H](Cc2ccccc2)NC(=O)[C@H](Cc2c[nH]cn2)NC(=O)[C@H](CCC(=O)O)NC(=O)[C@@H]2CSSC[C@H](NC(=O)[C@H](Cc3c[nH]c4ccccc34)NC1=O)C(=O)N[C@@H](CCC(=O)O)C(=O)N[C@@H](Cc1c[nH]cn1)C(=O)N[C@H](Cc1ccccc1)C(=O)N[C@@H](CCCNC(=N)N)C(=O)N[C@@H](Cc1c[nH]c3ccccc13)C(=O)N2
notes: also called c[c[Cys-Glu-His-D-Phe-Arg-Trp-Cys]-Glu-His-D-Phe-Arg-Trp]
B6 gave an inhibition constant (Ki) in test [1] of 0.5 nM. In test [2], the “MC4R cAMP EC50” value was 0.2 nM. Also, the “MC1R cAMP EC50” value in test [3] was 2.69 nM.

B7: Chem. 5 (peptide)
peptide: cyclo(CH[dF]RWACH[dF]RWA)
modifications: disulfide 1-7
SMILES: C[C@@H]1NC(=O)[C@H](Cc2c[nH]c3ccccc23)NC(=O)[C@H](CCCNC(=N)N)NC(=O)[C@@H](Cc2ccccc2)NC(=O)[C@H](Cc2c[nH]cn2)NC(=O)[C@@H]2CSSC[C@H](NC1=O)C(=O)N[C@@H](Cc1c[nH]cn1)C(=O)N[C@H](Cc1ccccc1)C(=O)N[C@@H](CCCNC(=N)N)C(=O)N[C@@H](Cc1c[nH]c3ccccc13)C(=O)N[C@@H](C)C(=O)N2
notes: also called c[c[Cys-His-D-Phe-Arg-Trp-Ala-Cys]-His-D-Phe-Arg-Trp-Ala]
Molecule B7 came in with an inhibition constant (Ki) in test [1] of 0.99 nM. Moreover, the “MC4R cAMP EC50” value in test [2] turned out to be 0.21 nM. In addition, in test [3], the “MC1R cAMP EC50” value is 6.47 nM.

B8: Chem. 62 (peptide)
peptide: cyclo(CPH[dF]HWCAKKKW)
modifications: disulfide 1-7
notes: also called c[c[Cys-Pro-His-D-Phe-His-Trp-Cys]-Ala-Lys-Lys-Lys-Trp]
As for B8, affinity in test [1] was put at a Ki of 0.13 nM. Moreover, the “MC4R cAMP EC50” value in test [2] is 0.17 nM. Also, in test [3], the “MC1R cAMP EC50” value was greater than 1 nM.

B9: Chem. 71 (peptide)
peptide: cyclo(CPH[dF]HWCAKKKR)
modifications: disulfide 1-7
SMILES: C[C@@H]1NC(=O)[C@@H]2CSSC[C@H](NC(=O)[C@H](CCCNC(=N)N)NC(=O)[C@H](CCCCN)NC(=O)[C@H](CCCCN)NC(=O)[C@H](CCCCN)NC1=O)C(=O)N1CCC[C@H]1C(=O)N[C@@H](Cc1c[nH]cn1)C(=O)N[C@H](Cc1ccccc1)C(=O)N[C@@H](Cc1c[nH]cn1)C(=O)N[C@@H](Cc1c[nH]c3ccccc13)C(=O)N2
notes: also called c[c[Cys-Pro-His-D-Phe-His-Trp-Cys]-Ala-Lys-Lys-Lys-Arg]
In the case of B9, in test [1], the inhibition constant Ki is 0.05 nM. Besides, the “MC4R cAMP EC50” value in test [2] was determined as 0.08 nM. Also, in test [3], the “MC1R cAMP EC50” value was determined as 33.2 nM.

B10: Chem. 60 (peptide)
peptide: cyclo(CAH[dF]HWCAKKKW)
modifications: disulfide 1-7
SMILES: C[C@@H]1NC(=O)[C@@H]2CSSC[C@H](NC(=O)[C@H](Cc3c[nH]c4ccccc34)NC(=O)[C@H](Cc3c[nH]cn3)NC(=O)[C@@H](Cc3ccccc3)NC(=O)[C@H](Cc3c[nH]cn3)NC1=O)C(=O)N[C@@H](C)C(=O)N[C@@H](CCCCN)C(=O)N[C@@H](CCCCN)C(=O)N[C@@H](CCCCN)C(=O)N[C@@H](Cc1c[nH]c3ccccc13)C(=O)N2
notes: also called c[c[Cys-Ala-His-D-Phe-His-Trp-Cys]-Ala-Lys-Lys-Lys-Trp]
For B10, the inhibition constant Ki in test [1] is 0.1 nM. The “MC4R cAMP EC50” value in test [2] is 0.17 nM. The “MC1R cAMP EC50” value in test [3] was determined as 53.3 nM.

B11: Chem. 57 (peptide)
peptide: cyclo(CAH[dF]QWCAK[dK]KW)
modifications: disulfide 1-7
SMILES: C[C@@H]1NC(=O)[C@@H]2CSSC[C@H](NC(=O)[C@H](Cc3c[nH]c4ccccc34)NC(=O)[C@H](CCC(N)=O)NC(=O)[C@@H](Cc3ccccc3)NC(=O)[C@H](Cc3c[nH]cn3)NC1=O)C(=O)N[C@@H](C)C(=O)N[C@@H](CCCCN)C(=O)N[C@H](CCCCN)C(=O)N[C@@H](CCCCN)C(=O)N[C@@H](Cc1c[nH]c3ccccc13)C(=O)N2
notes: also called c[c[Cys-Ala-His-D-Phe-Gln-Trp-Cys]-Ala-Lys-D-Lys-Lys-Trp]
Consider B11, for which the inhibition constant (Ki) in test [1] worked out at 0.21 nM. Moreover, the “MC4R cAMP EC50” value in test [2] was 0.19 nM. The “MC1R cAMP EC50” value in test [3] came to 10.4 nM.

B12: Chem. 75 (peptide)
peptide: cyclo(CPH[dF]HWCKKKKW)
modifications: disulfide 1-7
notes: also called c[c[Cys-Pro-His-D-Phe-His-Trp-Cys]-Lys-Lys-Lys-Lys-Trp]
Molecule B12 gave a Ki in test [1] of 0.11 nM. In addition, the “MC4R cAMP EC50” value in test [2] is 0.44 nM. The “MC1R cAMP EC50” value in test [3] was 68 nM.

B13: Chem. 52 (peptide)
peptide: cyclo(CKH[dF]HWCKH[dF]HW)
modifications: disulfide 1-7
SMILES: NCCCC[C@@H]1NC(=O)[C@@H]2CSSC[C@H](NC(=O)[C@H](Cc3c[nH]c4ccccc34)NC(=O)[C@H](Cc3c[nH]cn3)NC(=O)[C@@H](Cc3ccccc3)NC(=O)[C@H](Cc3c[nH]cn3)NC1=O)C(=O)N[C@@H](CCCCN)C(=O)N[C@@H](Cc1c[nH]cn1)C(=O)N[C@H](Cc1ccccc1)C(=O)N[C@@H](Cc1c[nH]cn1)C(=O)N[C@@H](Cc1c[nH]c3ccccc13)C(=O)N2
notes: also called c[c[Cys-Lys-His-D-Phe-His-Trp-Cys]-Lys-His-D-Phe-His-Trp]
Molecule B13 displayed an inhibition constant Ki in test [1] of 0.76 nM. The “MC4R cAMP EC50” value in test [2] worked out at 0.23 nM. The “MC1R cAMP EC50” value in test [3] came to 47.7 nM.

A word on the Ki: it is a measure of affinity in units of concentration, obtained from inhibition or displacement.

Source of the values: patent publication US20200223889A1 (Novo Nordisk, published 2020).
